The text below walks through data of US20210179706A1 (AKESO BIOPHARMA, published 2021).

Experiment [1] has as its target T1, human IL-1β-His-Bio (human, UniProt P01584 117-269, limits assumed, biotinylated with EZ-Link Sulfo-NHS-LC-Biotinylation Kit (sites not given)).
T1 construct: also called biotinylated human IL-1β-His; not shown: His tag
As to the kind of experiment: ELISA, IL-1β-His-Bio captured on streptavidin; 4-parameter fit.

In experiment [2] the target is T1, human IL-1β-His-Bio. As to the kind of experiment: ELISA, IL-1β-His-Bio captured on streptavidin; antibody 0.012 µg/mL. (In general: In an ELISA, binding on a coated surface is turned into a signal by an enzyme label.)
Method: A plate was coated with 50 μL of 2 μg/mL SA (streptavidin) in each well, and incubated overnight at 4° C. After the plate was washed once and the residual liquid was removed, each well was blocked with 300 μL of 1% BSA solution (dissolved in PBS) and the plate was incubated at 37° C. for 2 h. The plate was washed three times and the residual liquid was removed. Human IL-1β-His-Bio in each well was diluted with 50 μL of PBST to 0.2 μg/mL, and the plate was incubated at 37° C. for 30 min. Then the plate was washed three times and the residual liquid was removed. […] Two duplicate wells were set for the above concentrations, with a final volume of 100 μL per well, and the plate was incubated at 37° C. for 30 min. […] After the plate was washed four times and the residual liquid was removed, 50 μL of TMB chromogenic solution was added to each well for color developing for 5 min away from light at room temperature, then 50 μL of stop solution was added to each well to stop the reaction. Then the plate was put into a plate reader immediately, and the OD value of each well in the plate was read at 450 nm.
SoftMax Pro 6.2.1 software was used to analyze and process the data. 4-parameter fitted curves were plotted using the antibody concentration as the abscissa and the absorbance as the ordinate.
A further experiment addresses T2, human IL-1β-hFc (human, UniProt P01584 117-269, limits assumed).
T2 construct: also called human IL-1f3-hFc [sic]; not shown: human IgG Fc purification tag
As to the kind of experiment: competition ELISA on coated IL-1β-hFc, competitor IL-1R1(1-332)-his; 4-parameter fit.

For orientation: EC50 means the concentration needed to bring the measured effect to its halfway point. A higher EC50 goes with a less potent agent.

Method for human IL-1β-hFc: A plate was coated with 50 μL of 4 μg/mL human IL-1f3-hFc in each well, and incubated overnight at 4° C. After the plate was washed once and the residual liquid was removed, each well was blocked with 300 μL of 1% BSA solution (dissolved in PBS) and the plate was incubated at 37° C. for 2 h. Then the plate was washed three times and the residual liquid was removed. […] Two duplicate wells were set for the above concentrations, with a final volume of 50 μL per well, and the plate was incubated for 10 min. […] Then the plate was incubated at 37° C. for 30 min. After the plate was washed three times and the residual liquid was removed, 50 μL of anti-His murine monoclonal antibody (HRP-labeled) working solution was added to each well, and the plate was incubated at 37° C. for 30 min. After the plate was washed four times and the residual liquid was removed, 50 μL of TMB chromogenic solution was added to each well for color developing for 10 min or 5 min away from light at room temperature, then 50 μL of stop solution was added to each well to stop the reaction. Then the plate was put into a plate reader immediately, and the OD value of each well in the plate was read at 450 nm.
The data were analyzed and processed using SoftMax Pro 6.2.1 software and 4-parameter fit curves were plotted using the antibody concentration as the abscissa and the absorbance as the ordinate.

B1: anti-IL-1β murine monoclonal antibody 3H6 (antibody, V domains shown)
VH: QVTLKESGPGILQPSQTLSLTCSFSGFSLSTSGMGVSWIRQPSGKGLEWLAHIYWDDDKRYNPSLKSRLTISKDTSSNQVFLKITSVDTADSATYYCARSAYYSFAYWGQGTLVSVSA
VL: DIVMTQSHKFMSTSVGGRVRITCKASQDVDTDVAWFQQKPGQSPKLLIYWASTRHTGVPDRFTGSGSGTDFTLTISNVQSEDLADYFCQQYSSYPTFGAGTKLELK
notes: Mouse monoclonal antibody purified from hybridoma supernatant on protein A; also called antibody secreted by hybridoma cell line LT010 (IL-1β-3H6), CCTCC NO: C2018133
As for B1, the EC50 amounted to 0.099 nM in the experiment with human IL-1β-His-Bio [1] and 0.137 nM with human IL-1β-hFc. Further, in the experiment with human IL-1β-His-Bio [2], the “OD (450 nm)” value stood at 1.23 OD450.
